Starred links: 1 amine or outer side, 2 acyl side, 3 side chain; linkers in the order of their positions; H or OH if unused. Non-standard residues stand in square brackets, D forms with d. Groups on a side chain read outwards from the residue. Primed or numbered codes have the meaning given here. No end group written: not given here. *: point of attachment. γGlu = O=C(O)[C@H](CCC(=O)[*:2])N[*:1]; Palmitoyl = CCCCCCCCCCCCCCCC(=O)*; αMeF = C[C@](N)(Cc1ccccc1)C(=O)O; αMeK = C[C@](N)(CCCCN)C(=O)O; Lauroyl = CCCCCCCCCCCC(=O)*; PEG2′ = not defined here; Aib = CC(C)(N)C(=O)O
What follows are binders tested against glucagon receptor (GCGR), primary cAMP assay (human, UniProt P47871 26-477) (assay: cell-based or functional assay).
Chain of glucagon receptor (GCGR), primary cAMP assay (P47871 26-477): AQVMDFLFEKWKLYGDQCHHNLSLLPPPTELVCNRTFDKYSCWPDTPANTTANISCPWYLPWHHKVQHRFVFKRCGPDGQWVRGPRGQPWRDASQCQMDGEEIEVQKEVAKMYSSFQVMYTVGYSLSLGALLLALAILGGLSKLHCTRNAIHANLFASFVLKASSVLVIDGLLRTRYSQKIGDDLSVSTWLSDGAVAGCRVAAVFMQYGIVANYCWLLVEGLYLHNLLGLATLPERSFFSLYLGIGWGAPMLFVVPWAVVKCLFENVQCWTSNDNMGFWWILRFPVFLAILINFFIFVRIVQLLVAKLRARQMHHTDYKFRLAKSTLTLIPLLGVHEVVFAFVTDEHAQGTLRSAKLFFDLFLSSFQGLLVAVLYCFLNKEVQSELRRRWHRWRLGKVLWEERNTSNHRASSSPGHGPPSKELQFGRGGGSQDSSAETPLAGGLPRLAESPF
For H[Aib]EGS[αMeF]TSDVSK([PEG2′-PEG2′-γGlu-Lauroyl])YLEGEAA[αMeK]EFIAWK([PEG2′-PEG2′-γGlu-Lauroyl])VEGG-NH2 [SEQ ID NO: 253], the “Primary assay EC50 (cAMP), n1” value was 22.3 nM and the “Primary assay EC50 (cAMP), n2” value was 22.3 nM.
In the case of H[Aib]EGS[αMeF]TSDVSK([PEG2′-PEG2′-γGlu-Lauroyl])YLEGEAA[αMeK]EFIK([PEG2′-PEG2′-γGlu-Lauroyl])WVVEGG-NH2 [SEQ ID NO: 249], the “Primary assay EC50 (cAMP), n1” value is reported as 22.1 nM and the “Primary assay EC50 (cAMP), n2” value is reported as 22.1 nM.
With H[Aib]EGTFTSDVSK([PEG2′-PEG2′-γGlu-Lauroyl])FLEGEAAEEFIK([PEG2′-PEG2′-γGlu-Lauroyl])FVVEGG-NH2 [SEQ ID NO: 239] the “Primary assay EC50 (cAMP), n1” value was 22.5 nM and the “Primary assay EC50 (cAMP), n2” value was 22.5 nM.
For H[Aib]EGS[αMeF]TSDVSK([PEG2′-PEG2′-γGlu-Lauroyl])YLEGEAA[αMeK]EFIAK([PEG2′-PEG2′-γGlu-Lauroyl])VVEGG-NH2 [SEQ ID NO: 252], the “Primary assay EC50 (cAMP), n1” value was 22.7 nM and the “Primary assay EC50 (cAMP), n2” value was 22.7 nM.
H[Aib]EGS[αMeF]TSDVSK([PEG2′-PEG2′-γGlu-Lauroyl])FLEGEAAEEFIK([PEG2′-PEG2′-γGlu-Lauroyl])FVVEGG-NH2 [SEQ ID NO: 241] was tested, and the “Primary assay EC50 (cAMP), n1” value was 22.5 nM and the “Primary assay EC50 (cAMP), n2” value was 22.5 nM.
With H[Aib]EGS[αMeF]TSDK([PEG2′-PEG2′-γGlu-Lauroyl])SSYLEGEAA[αMeK]EFIAK([PEG2′-PEG2′-γGlu-Lauroyl])VVEGG-NH2 [SEQ ID NO: 257] the “Primary assay EC50 (cAMP), n1” value was 22.8 nM and the “Primary assay EC50 (cAMP), n2” value was 22.8 nM.
With H[Aib]EGS[αMeF]TSDVSK([PEG2′-PEG2′-γGlu-Palmitoyl])YLEGEAA[αMeK]EFIK([PEG2′-PEG2′-γGlu-Palmitoyl])WVVEGG-NH2 [SEQ ID NO: 251] the “Primary assay EC50 (cAMP), n1” value was 21.3 nM and the “Primary assay EC50 (cAMP), n2” value was 21.3 nM.

What follows are binders tested against T1, glucose-dependent insulinotropic peptide (gastric inhibitory polypeptide) receptor (GIPR), primary cAMP assay (human, UniProt P48546 22-466) (assay: cell-based or functional assay).
T1 sequence (looked up): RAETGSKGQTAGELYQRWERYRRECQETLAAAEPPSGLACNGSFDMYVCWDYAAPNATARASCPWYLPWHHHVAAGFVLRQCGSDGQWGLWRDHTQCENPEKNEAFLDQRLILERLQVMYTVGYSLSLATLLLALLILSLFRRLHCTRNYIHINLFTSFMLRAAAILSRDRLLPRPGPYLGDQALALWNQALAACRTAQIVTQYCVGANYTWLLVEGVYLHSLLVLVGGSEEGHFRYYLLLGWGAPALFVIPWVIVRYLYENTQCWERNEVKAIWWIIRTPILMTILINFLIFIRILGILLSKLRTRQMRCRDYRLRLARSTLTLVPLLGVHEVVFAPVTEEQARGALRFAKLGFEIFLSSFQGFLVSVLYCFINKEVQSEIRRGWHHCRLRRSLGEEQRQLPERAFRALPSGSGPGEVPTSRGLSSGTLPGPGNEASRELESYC
In the case of H[Aib]EGS[αMeF]TSDVSK([PEG2′-PEG2′-γGlu-Lauroyl])YLEGEAA[αMeK]EFIAWK([PEG2′-PEG2′-γGlu-Lauroyl])VEGG-NH2 [SEQ ID NO: 253], the “Primary assay EC50 (cAMP), n1” value is reported as 22.3 nM and the “Primary assay EC50 (cAMP), n2” value is reported as 22.3 nM.
In the case of H[Aib]EGS[αMeF]TSDVSK([PEG2′-PEG2′-γGlu-Lauroyl])YLEGEAA[αMeK]EFIK([PEG2′-PEG2′-γGlu-Lauroyl])WVVEGG-NH2 [SEQ ID NO: 249], the “Primary assay EC50 (cAMP), n1” value is reported as 22.1 nM and the “Primary assay EC50 (cAMP), n2” value is reported as 22.1 nM.
With H[Aib]EGTFTSDVSK([PEG2′-PEG2′-γGlu-Lauroyl])FLEGEAAEEFIK([PEG2′-PEG2′-γGlu-Lauroyl])FVVEGG-NH2 [SEQ ID NO: 239] the “Primary assay EC50 (cAMP), n1” value was 22.5 nM and the “Primary assay EC50 (cAMP), n2” value was 22.5 nM.
With H[Aib]EGS[αMeF]TSDVSK([PEG2′-PEG2′-γGlu-Lauroyl])YLEGEAA[αMeK]EFIAK([PEG2′-PEG2′-γGlu-Lauroyl])VVEGG-NH2 [SEQ ID NO: 252] the “Primary assay EC50 (cAMP), n1” value was 22.7 nM and the “Primary assay EC50 (cAMP), n2” value was 22.7 nM.
For H[Aib]EGS[αMeF]TSDVSK([PEG2′-PEG2′-γGlu-Lauroyl])FLEGEAAEEFIK([PEG2′-PEG2′-γGlu-Lauroyl])FVVEGG-NH2 [SEQ ID NO: 241], the “Primary assay EC50 (cAMP), n1” value was 22.5 nM and the “Primary assay EC50 (cAMP), n2” value was 22.5 nM.
For H[Aib]EGS[αMeF]TSDK([PEG2′-PEG2′-γGlu-Lauroyl])SSYLEGEAA[αMeK]EFIAK([PEG2′-PEG2′-γGlu-Lauroyl])VVEGG-NH2 [SEQ ID NO: 257], the “Primary assay EC50 (cAMP), n1” value was 22.8 nM and the “Primary assay EC50 (cAMP), n2” value was 22.8 nM.
With H[Aib]EGS[αMeF]TSDVSK([PEG2′-PEG2′-γGlu-Palmitoyl])YLEGEAA[αMeK]EFIK([PEG2′-PEG2′-γGlu-Palmitoyl])WVVEGG-NH2 [SEQ ID NO: 251] the “Primary assay EC50 (cAMP), n1” value was 21.3 nM and the “Primary assay EC50 (cAMP), n2” value was 21.3 nM.

Each binder was assayed against GLP-1 receptor (GLP-1R), primary cAMP assay (human, UniProt P43220 24-463) (assay: cell-based or functional assay).
In the case of H[Aib]EGS[αMeF]TSDVSK([PEG2′-PEG2′-γGlu-Lauroyl])YLEGEAA[αMeK]EFIAWK([PEG2′-PEG2′-γGlu-Lauroyl])VEGG-NH2 [SEQ ID NO: 253], the “Primary assay EC50 (cAMP) Mean” value is reported as 0.0206 nM, the “Primary assay EC50 (cAMP), n1” value is reported as 0.0234 nM and the “Primary assay EC50 (cAMP), n2” value is reported as 0.0177 nM.
For H[Aib]EGS[αMeF]TSDVSK([PEG2′-PEG2′-γGlu-Lauroyl])YLEGEAA[αMeK]EFIK([PEG2′-PEG2′-γGlu-Lauroyl])WVVEGG-NH2 [SEQ ID NO: 249], the “Primary assay EC50 (cAMP) Mean” value was 0.0055 nM, the “Primary assay EC50 (cAMP), n1” value was 0.00447 nM and the “Primary assay EC50 (cAMP), n2” value was 0.00649 nM.
For H[Aib]EGTFTSDVSK([PEG2′-PEG2′-γGlu-Lauroyl])FLEGEAAEEFIK([PEG2′-PEG2′-γGlu-Lauroyl])FVVEGG-NH2 [SEQ ID NO: 239], the “Primary assay EC50 (cAMP) Mean” value was 0.0074 nM, the “Primary assay EC50 (cAMP), n1” value was 0.0063 nM and the “Primary assay EC50 (cAMP), n2” value was 0.00845 nM.
In the case of H[Aib]EGS[αMeF]TSDVSK([PEG2′-PEG2′-γGlu-Lauroyl])YLEGEAA[αMeK]EFIAK([PEG2′-PEG2′-γGlu-Lauroyl])VVEGG-NH2 [SEQ ID NO: 252], the “Primary assay EC50 (cAMP) Mean” value is reported as 0.0025 nM, the “Primary assay EC50 (cAMP), n1” value is reported as 0.00288 nM and the “Primary assay EC50 (cAMP), n2” value is reported as 0.00217 nM.
With H[Aib]EGS[αMeF]TSDVSK([PEG2′-PEG2′-γGlu-Lauroyl])FLEGEAAEEFIK([PEG2′-PEG2′-γGlu-Lauroyl])FVVEGG-NH2 [SEQ ID NO: 241] the “Primary assay EC50 (cAMP) Mean” value was 0.0096 nM, the “Primary assay EC50 (cAMP), n1” value was 0.00755 nM and the “Primary assay EC50 (cAMP), n2” value was 0.0116 nM.
With H[Aib]EGS[αMeF]TSDK([PEG2′-PEG2′-γGlu-Lauroyl])SSYLEGEAA[αMeK]EFIAK([PEG2′-PEG2′-γGlu-Lauroyl])VVEGG-NH2 [SEQ ID NO: 257] the “Primary assay EC50 (cAMP) Mean” value was 0.0084 nM, the “Primary assay EC50 (cAMP), n1” value was 0.00436 nM and the “Primary assay EC50 (cAMP), n2” value was 0.0124 nM.
In the case of H[Aib]EGS[αMeF]TSDVSK([PEG2′-PEG2′-γGlu-Palmitoyl])YLEGEAA[αMeK]EFIK([PEG2′-PEG2′-γGlu-Palmitoyl])WVVEGG-NH2 [SEQ ID NO: 251], the “Primary assay EC50 (cAMP) Mean” value is reported as 0.0311 nM, the “Primary assay EC50 (cAMP), n1” value is reported as 0.016 nM and the “Primary assay EC50 (cAMP), n2” value is reported as 0.0462 nM.

The binders below were run against T2, GLP-1R in the INS1e assay (UniProt P32301 22-463, limits assumed) (assay: cell-based or functional assay).
T2 sequence (looked up): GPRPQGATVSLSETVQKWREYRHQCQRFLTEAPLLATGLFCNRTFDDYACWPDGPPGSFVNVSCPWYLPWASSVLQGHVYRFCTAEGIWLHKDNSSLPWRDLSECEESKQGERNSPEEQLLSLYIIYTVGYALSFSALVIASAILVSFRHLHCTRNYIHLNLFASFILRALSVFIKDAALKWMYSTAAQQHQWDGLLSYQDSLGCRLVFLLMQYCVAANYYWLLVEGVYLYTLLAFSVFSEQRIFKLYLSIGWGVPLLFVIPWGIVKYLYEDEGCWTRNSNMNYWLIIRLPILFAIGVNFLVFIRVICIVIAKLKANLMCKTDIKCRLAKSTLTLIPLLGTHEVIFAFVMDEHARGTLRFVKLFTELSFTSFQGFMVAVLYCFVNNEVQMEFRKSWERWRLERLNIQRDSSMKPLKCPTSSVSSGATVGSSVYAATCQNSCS
With H[Aib]EGS[αMeF]TSDVSK([PEG2′-PEG2′-γGlu-Lauroyl])YLEGEAA[αMeK]EFIAWK([PEG2′-PEG2′-γGlu-Lauroyl])VEGG-NH2 [SEQ ID NO: 253] the “INS1e assay EC50 (cAMP) Mean” value was 2.11 nM, the “INS1e assay EC50 (cAMP) n1” value was 2.08 nM and the “INS1e assay EC50 (cAMP) n2” value was 2.14 nM.
For H[Aib]EGS[αMeF]TSDVSK([PEG2′-PEG2′-γGlu-Lauroyl])YLEGEAA[αMeK]EFIK([PEG2′-PEG2′-γGlu-Lauroyl])WVVEGG-NH2 [SEQ ID NO: 249], the “INS1e assay EC50 (cAMP) Mean” value was 0.566 nM, the “INS1e assay EC50 (cAMP) n1” value was 0.721 nM and the “INS1e assay EC50 (cAMP) n2” value was 0.41 nM.
In the case of H[Aib]EGTFTSDVSK([PEG2′-PEG2′-γGlu-Lauroyl])FLEGEAAEEFIK([PEG2′-PEG2′-γGlu-Lauroyl])FVVEGG-NH2 [SEQ ID NO: 239], the “INS1e assay EC50 (cAMP) Mean” value is reported as 13 nM, the “INS1e assay EC50 (cAMP) n1” value is reported as 14.7 nM and the “INS1e assay EC50 (cAMP) n2” value is reported as 11.2 nM.
For H[Aib]EGS[αMeF]TSDVSK([PEG2′-PEG2′-γGlu-Lauroyl])YLEGEAA[αMeK]EFIAK([PEG2′-PEG2′-γGlu-Lauroyl])VVEGG-NH2 [SEQ ID NO: 252], the “INS1e assay EC50 (cAMP) Mean” value was 0.175 nM, the “INS1e assay EC50 (cAMP) n1” value was 0.184 nM and the “INS1e assay EC50 (cAMP) n2” value was 0.166 nM.
For H[Aib]EGS[αMeF]TSDVSK([PEG2′-PEG2′-γGlu-Lauroyl])FLEGEAAEEFIK([PEG2′-PEG2′-γGlu-Lauroyl])FVVEGG-NH2 [SEQ ID NO: 241], the “INS1e assay EC50 (cAMP) Mean” value was 6.28 nM, the “INS1e assay EC50 (cAMP) n1” value was 5.84 nM and the “INS1e assay EC50 (cAMP) n2” value was 6.71 nM.
In the case of H[Aib]EGS[αMeF]TSDK([PEG2′-PEG2′-γGlu-Lauroyl])SSYLEGEAA[αMeK]EFIAK([PEG2′-PEG2′-γGlu-Lauroyl])VVEGG-NH2 [SEQ ID NO: 257], the “INS1e assay EC50 (cAMP) Mean” value is reported as 0.577 nM, the “INS1e assay EC50 (cAMP) n1” value is reported as 0.812 nM and the “INS1e assay EC50 (cAMP) n2” value is reported as 0.342 nM.
With H[Aib]EGS[αMeF]TSDVSK([PEG2′-PEG2′-γGlu-Palmitoyl])YLEGEAA[αMeK]EFIK([PEG2′-PEG2′-γGlu-Palmitoyl])WVVEGG-NH2 [SEQ ID NO: 251] the “INS1e assay EC50 (cAMP) Mean” value was 7.16 nM, the “INS1e assay EC50 (cAMP) n1” value was 6.47 nM and the “INS1e assay EC50 (cAMP) n2” value was 7.85 nM.
